Values quoted from earlier work, collected in paper PMC9280966 (ACS Omega, 2022).
pKd: −log10 of the molar value.

Biological target: RHEB (Homo sapiens, UniProt Q15382)
Conditions: read-out: KD with RHEB (BLI); BLI analysis, earlier study; ref [12]

Sequence of RHEB (Q15382 whole entry): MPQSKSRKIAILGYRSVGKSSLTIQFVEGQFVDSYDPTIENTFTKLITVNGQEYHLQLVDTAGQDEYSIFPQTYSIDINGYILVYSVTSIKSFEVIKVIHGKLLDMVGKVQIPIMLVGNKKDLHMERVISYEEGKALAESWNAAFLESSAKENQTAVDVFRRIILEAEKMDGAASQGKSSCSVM

## mTOR^ΔN: N-heat domain of mTOR (aa 60–167), 6xHis tagged, ∼13 kDa
  pKd: ~5.19
